The target in assay [1] is T1, BQ.1.1 spike protein (SARS-CoV-2 variant BQ.1.1, UniProt P0DTC2 14-1273). The assay is described as follows: pVNT (FIG. 1E, 1F, 2A, 3 cited); no direct binding assay described.
For assay [2], the target named is T1, BQ.1.1 spike protein. The assay is described as follows: cell-based or functional assay.
In assay [3] the target is SARS-CoV-2 B.1.351 (beta) RBD (SARS-CoV-2 B.1.351 (beta), UniProt P0DTC2 319-541). The assay can be described thus: multiplex sVNT, RBD-coated beads, PE-hACE2 as competitor.
Assay [4] deals with SARS-CoV-2 B.1.617.2 (delta) RBD (SARS-CoV-2 B.1.617.2 (delta), UniProt P0DTC2 319-541). Described as above.
The target of assay [5] is SARS-CoV-2 B.1.1.529.1 (BA.1) RBD (SARS-CoV-2 B.1.1.529.1 (BA.1), UniProt P0DTC2 319-541). The description is as above.
In assay [6] the target is SARS-CoV-2 B.1.1.529.5 (BA.5) RBD (SARS-CoV-2 B.1.1.529.5 (BA.5), UniProt P0DTC2 319-541). Described as above.
Assay [7] deals with SARS-CoV-2 XBB.1 RBD (SARS-CoV-2 XBB.1, UniProt P0DTC2 319-541). The description is as above.
For assay [8], the target named is XBB.1 spike protein (SARS-CoV-2 variant XBB.1, UniProt P0DTC2 14-1273). The assay can be described thus: cell-based or functional assay.

Changes are numbered by the printed parent chain. Names may count otherwise. Where only a bound is given, the exact number is not on record here.

B1: LyCov-1404 (bebtelovimab) (antibody, V domains shown)
VH: QITLKESGPTLVKPTQTLTLTCTFSGFSLSISGVGVGWLRQPPGKALEWLALIYWDDDKRYSPSLKSRLTISKDTSKNQVVLKMTNIDPVDTATYYCAHHSISTIFDHWGQGTLVTVSS
VL: QSALTQPASVSGSPGQSITISCTATSSDVGDYNYVSWYQQHPGKAPKLMIFEVSDRPSGISNRFSGSKSGNTASLTISGLQAEDEADYYCSSYTTSSAVFGGGTKLTVL
With B1, the binding result in assay [1] is reported as “no binding”.

B2: Ab49 (10x-L8N-c73) (antibody, V domains shown)
VH: QVQLVQSGAEVKKPGSSVKVSCKASGGTFTTYAIAWVRQAPGQGLEWMGRIIPTLDNPNYAQKFQGRVSITADKSTGTSYMELRSLRSDDTAVYYCAHVSYDSSGPHLSWYFNLWGRGTLITVSS
VL: DIQMTQSPSTLSASVGDRVTITCRASQSIPSRLAWYQHKPGEAPKLLIYEASTLESGVPSRFSGSGSGTEFTLTITSLQPDDFATYFCQGWNAFGGGTKVEIK
On to B2, for which the “IC50 (pVNT)” value in assay [2] was no more than 550 ng/ml.

B3: SS6V11-E7 (antibody, V domains shown)
VH: QVQLQESGPGLVKPSETLSLTCTVSGGFIGPHYWSWVRQPPGKGLEWIGYIYISGSTNYNPSLKSRLTISVDMSKSQFSLTLSSATAADTAVYYCARGGGYLETGPFEYWGQGTLVTVSS
VL: DIVMTQSPLSLPVTPGEPASISCRSSQSLLQNNGYNYLAWYLQKPGQSPQLLIYLSSTRASGVPDRFSGSGSGTDFTLKISRVEAEDVGVYYCMQSLQIPGTFGQGTRLEIK
In the case of B3, the binding result in assay [3], in assay [4], in assay [5], in assay [6] and in assay [7] was “binds” each time.

B4: Ab52 (10x-L8N-c89) (antibody, V domains shown)
VH: QVQLVQSGSEVKKPGSSVKVSCRASGDTFSSHSLSWVRQAPGQGLEWMGRIVPMFGITNYAQNFQGRVTFTADKSTSTAYMELSSLRSEDTAVYYCARAGTMITFGGLTDDGQLNWFDPWGQGTLVTVSS
VL: DVVLTQSPLSLSVTLGQPASISCRSSQSLEYSDGDTYLNWFHQRPGQSPRRLIYKVSNRDSGVPDRFSGSGAGTDFTLKISKVEAEDVGVYYCMQGTNWPPNFGPGTKVDIK
As for B4, the “IC50 (pVNT)” value in assay [2] is no more than 550 ng/ml.

B5: Ab51 (10x-L8N-c86) (antibody, V domains shown)
VH: EVQLVESGGGLVKPGESLRLSCAASGFTFSSSSLNWVRQAPGKGLEWVSSISISGDYTYYADSVKGRFTISRDNGKNSVYLQMDRLRVEDTAMYYCARDRFGFYDMLAHSYNVGFFQSWGQGTLVAVSS
VL: DIRMTQSPSSLSASVGDSVTITCRASQDITNYLAWFQQKPGKAPKSLIYSASILQSGVPSKFSGSGSGTDFTLTISSLQPEDFATYYCQQYLTYPITFGQGTRLEIK
Consider B5, for which, in assay [2], the “IC50 (pVNT)” value is no more than 550 ng/ml.

B6: Ab2 (H12.2) (antibody, V domains shown)
VH: EFQLVESGGRLVRPGGSLRLSCVASEIIVSRNYMSWIRQAPGKGLEWVSILYAGGTTYYADSVKGRFTISRDNSKNTLYLQLNSLRVEDTAIYYCVRPIVGGRGGMDVWGQGTTVTVSS
VL: DIQMTQSPSSLSASVGDRVTITCQASQDINKYLNWYQQKPGKAPKLLIYDASNLEPGVPSRFSGSGSGTDFVFTITSLQPEDIATYYCHYYDDVPYTFGQGTQLEIK
Regarding B6, in assay [2], the “IC50 (pVNT)” value was no more than 300 ng/ml and the “concentration required to effectively neutralize (pVNT)” value (“concentration required” below) turned out to be 16.6 ng/ml. In assay [8], the “concentration required” value was found to be 8.5 ng/ml and the “times less than the concentration of E7” value is roughly 40 times. Besides, in assay [7], the binding result was “binds”.

B7: Ab5 (10x-L8N-c25) (antibody, V domains shown)
VH: B6 VH with E1D, R10G, I28T, L51I, A53P, L78M, V87P, G101R, R103G
VL: B6 VL with S52T, H89Q
As to B7, in assay [2], the “IC50 (pVNT)” value is no more than 300 ng/ml, the “concentration required” value was found to be 57.5 ng/ml and the “times less than the concentration of E7” value is roughly 10 times. In assay [8], the “concentration required” value is 40.8 ng/ml and the “times less than the concentration of E7” value was roughly 8 times.

B8: Ab1 (B11.2) (antibody, V domains shown)
VH: EVQLVESGGGLVQPGGSLRLSCAASEIIVSRNYMTWVRQAPGKGLEWLAVLYAGGSSFYADSVKGRFTISRDNSKNTLFLQMNSLRAEDTAVYYCARDLSLSGGFDYWGQGALVTVSS
VL: DIQLTQSPSFLSASVGDRVTITCRASQGISNYLAWYQQNPGKAPKLLIYAVSTLHSGVPSRFSGSGSGTEFTLTISSLQPEDFATYYCQHLNTDSCTFGQGTKLEIK
As to B8, in assay [2], the “IC50 (pVNT)” value was no more than 300 ng/ml and the “concentration required” value stood at 16.5 ng/ml. In addition, in assay [8], the “concentration required” value was found to be 11.6 ng/ml.

B9: Ab50 (10x-L8N-c84) (antibody, V domains shown)
VH: QVQLVQSGAAVKKPGSSVKVSCEASGGTFSRFAVNWVRQAPGQGLEWMGRIIPLFAIANYPQRFQGRVIMSADRSTNITYMELSRLTSEDTAVYYCAREIDTVIDPAMDVFHGMEVWGQGTTVIVSS
VL: QSVLTQPPSASGTPGQRVTISCSGRSSNIGSNYVHWYQQLPGTAPKLLIYRNNQRPSGVPDRFSGSKSGTSASLAISGLRSEDEADYYCAGWDDSLSGAVFGGGTKLSVL
Take B9: the “IC50 (pVNT)” value in assay [2] was no more than 550 ng/ml.

These data come from patent publication US20260209318A1 (NATIONAL UNIVERSITY OF SINGAPORE, published 2026).
